Here are results for three variants from paper PMC7674511 (2020).

First the molecules themselves.
B1: FLAG-BAG6(1-266aa) [not stated] / GFP-LC3B [not stated] (parent complex)
chain 1: MEPNDSTSTAVEEPDSLEVLVKTLDSQTRTFIVGAQMNVKEFKEHIAASVSIPSEKQRLIYQGRVLQDDKKLQEYNVGGKVIHLVERAPPQTHLPSGASSGTGSASATHGGGSPPGTRGPGASVHDRNANSYVMVGTFNLPSDGSAVDVHINMEQAPIQSEPRVRLVMAQHMIRDIQTLLSRMECRGGPQPQHSQPPPQPPAVTPEPVALSSQTSEPVESEAPPREPMEAEEVEERAPAQNPELTPGPAPAGPTPAPETNAPNHPS
chain 2: not shown
B2: BAG6 LIR1 peptide (residues 124-143) [modified: FITC label (position not stated), told for the anisotropy assay; FITC label (position not stated), told for the anisotropy assay] [not stated] / LC3B-I [not stated] (parent complex)
chain 1: VHDRNANSYVMVGTFNLPSD
chain 2: not shown

The variants in one assay derive from B1. Description: co-immunoprecipitation (FLAG pulldown with anti-FLAG beads, immunoblot); HEK293FT cells transfected with GFP-LC3B and FLAG-BAG6(1-266aa) constructs.
As for chain 1 Y132A, chain 1 V135A, the ratio to parent was 0.79.
Same read-out and setting: with chain 1 Y132A, chain 1 V133A, chain 1 M134A, chain 1 V135A the figure was 0.23.

In the next assay the parent is B2. Description: fluorescence anisotropy; FITC-labeled peptide 1 μM; read at the highest LC3B-I concentration plotted (about 48 μM); read off a plot.
As for chain 1 Y9A, chain 1 V12A, the response is around 0.001.
